Measured values taken from patent US20220403001A1, “PDE5 DERIVED REGULATORY CONSTRUCTS AND METHODS OF USE IN IMMUNOTHERAPY” (Obsidian Therapeutics, Inc., priority 2018, published 2022).

Experiments:
hPDE5 mutants [1] = biological target: T1, hPDE5 mutants (Homo sapiens, UniProt O76074); test: Western blot of AcGFP/GFP protein levels in HCT 116 cells expressing hPDE5 mutants; assay type: cell-based; design: GFP protein levels (western blot); fused on or other part: AcGFP reporter through a linker; conditions: vardenafil vs DMSO, HCT 116, R732 mutants
Description: Protein expression analysis of the combination mutants was performed in parallel via western blot. […] GAPDH levels were also analyzed to ensure even protein loading.

hPDE5 mutants [2] = biological target: T1, hPDE5 mutants; test: GFP MFI by FACS in HCT116 cells transduced with hPDE5 constructs; assay type: cell-based; conditions: for Vardenafil Stabilization ratio / Sildenafil Stabilization ratio / GFP by FACS, Sildenafil 10 μM / GFP by FACS, Vardenafil 1 μM: hotspot constructs; for Vardenafil Stabilization ratio: 1 μM Vardenafil; for Sildenafil Stabilization ratio: 10 μM Sildenafil; for GFP by FACS, Sildenafil 10 μM / GFP by FACS, Vardenafil 1 μM: HCT116
Description: (§1) Desirable qualities of a DD include, low expression of the SRE in the absence of ligand and ligand dependent stabilization of the SRE. Constructs were generated using DDs linked to GFP using an SG linker. […] The mean fluorescence intensity (MFI) of GFP was analyzed by FACS. […] Destabilizing mutation coefficient less than 1 are desirable.
(§2) Mean fluorescence intensity (MFI) was measured by FACS. […] Destabilizing mutation coefficient ratios less than 1 are desirable.
(§3) Mean fluorescence intensity (MFI) was measured by FACS. […] Destabilizing mutation co-efficient ratios less than 1 are desirable.
(§4) Mean fluorescence intensity (MFI) was measured by FACS. […] Destabilizing mutation coefficient less than 1 are desirable.
as §4
(§5) Mean fluorescence intensity (MFI) of GFP was measured by FACS.
(§6) Mean fluorescence intensity (MFI) was measured by FACS.
(§7) The media containing the ligand was removed and fresh media without the ligand was added.
(§8) The properties of the DDs were analyzed in the presence and absence of ligands via FACS as previously described.
(§9) GFP fluorescence was measured by FACS.
(§10) The properties of the DDs were analyzed via FACS both in the presence and absence of ligands.
as §9

hPDE5 mutants [3] = test: as above; assay type: cell-based, human; conditions: for MFI: 48 hours, HCT 116 cells; for Sildenafil Destabilizing mutation coefficient / Vardenafil Destabilizing mutation coefficient / GFP by FACS, Sildenafil 0 μM (DMSO) / GFP by FACS, Vardenafil 0 μM (DMSO): hotspot constructs; for Sildenafil Destabilizing mutation coefficient: DMSO control of Sildenafil; for Sildenafil Destabilizing mutation coefficient / Vardenafil Destabilizing mutation coefficient: vs OT-001075; for Vardenafil Destabilizing mutation coefficient: DMSO control of Vardenafil; for GFP by FACS, Sildenafil 0 μM (DMSO): HCT116, DMSO control of Sildenafil; for GFP by FACS, Vardenafil 0 μM (DMSO): HCT116, DMSO control of Vardenafil
Description: as §1, §2, §3, §4, §4, §5, §6, §7, §8, §9, §10, §9

[4] = Table 44, Vardenafil 0.01 μM, 48 h, HCT 116
[5] = Table 44, Vardenafil 0.04 μM, 48 h, HCT 116
[6] = Table 44, Vardenafil 3.33 μM, 48 h, HCT 116
[7] = Table 44, Vardenafil 10 μM, 48 h, HCT 116
[8] = Table 44, Vardenafil 30 μM, 48 h, HCT 116
[9] = Table 44, Vardenafil 1000 μM, 48 h, HCT 116
[10] = Table 45, Sildenafil 0.01 μM, 48 h, HCT 116
[11] = Table 45, Sildenafil 0.04 μM, 48 h, HCT 116
[12] = Table 45, Sildenafil 3.33 μM, 48 h, HCT 116
[13] = Table 45, Sildenafil 10 μM, 48 h, HCT 116
[14] = Table 45, Sildenafil 30 μM, 48 h, HCT 116
[15] = Table 45, Sildenafil 1000 μM, 48 h, HCT 116
[16] = Tadalafil 0.01 μM, 48 hours, HCT 116 cells

Substance	GFP protein levels (western blot) (hPDE5 mutants [1])	MFI (hPDE5 mutants [2]; [4])	MFI (hPDE5 mutants [2]; [5])	MFI (hPDE5 mutants [2]; [6])	MFI (hPDE5 mutants [2]; [7])	MFI (hPDE5 mutants [2]; [8])	MFI (hPDE5 mutants [2]; [9])	MFI (hPDE5 mutants [2]; [10])	MFI (hPDE5 mutants [2]; [11])	MFI (hPDE5 mutants [2]; [12])	MFI (hPDE5 mutants [2]; [13])	MFI (hPDE5 mutants [2]; [14])	Vardenafil Stabilization ratio (hPDE5 mutants [2])	Sildenafil Stabilization ratio (hPDE5 mutants [2])	GFP by FACS, Sildenafil 10 μM (hPDE5 mutants [2])	GFP by FACS, Vardenafil 1 μM (hPDE5 mutants [2])	Sildenafil Destabilizing mutation coefficient (hPDE5 mutants [3])	Vardenafil Destabilizing mutation coefficient (hPDE5 mutants [3])	GFP by FACS, Sildenafil 0 μM (DMSO) (hPDE5 mutants [3])	GFP by FACS, Vardenafil 0 μM (DMSO) (hPDE5 mutants [3])	further results
OT-001187: hPDE5 R732A AcGFP construct	strong stabilization of GFP levels	2551	8345	16783	18945	22548	22548	808	1025	3769	4716	5694	4.87	1.21	348	853	0.29	1.09	288	175	MFI (hPDE5 mutants [2]; [15]): 5694; MFI (hPDE5 mutants [2]; [16]): 752; MFI (hPDE5 mutants [3]; Tadalafil 11.11 μM): 5126; MFI (hPDE5 mutants [3]; Tadalafil 33.33 μM): 6264; MFI (hPDE5 mutants [3]; Tadalafil 100 μM): 6301; MFI (hPDE5 mutants [3]; Tadalafil 1000 μM): 6301
OT-001188: hPDE5 R732V AcGFP construct	Modest ligand dependent stabilization of GFP levels												3.38	0.6	113	507	0.19	0.93	189	150	
OT-001189: hPDE5 R732I AcGFP construct	Modest ligand dependent stabilization of GFP levels	1810	3356	14531	17645	24322	24322	579	612	1709	2733	4197	3.89	0.85	170	587	0.2	0.94	201	151	MFI (hPDE5 mutants [2]; [15]): 4197; MFI (hPDE5 mutants [2]; [16]): 498; MFI (hPDE5 mutants [3]; Tadalafil 11.11 μM): 2746; MFI (hPDE5 mutants [3]; Tadalafil 33.33 μM): 3970; MFI (hPDE5 mutants [3]; Tadalafil 100 μM): 5487; MFI (hPDE5 mutants [3]; Tadalafil 1000 μM): 5487
OT-001190: hPDE5 R732P AcGFP construct	strong stabilization of GFP levels												0.87	0.95	361	310	0.38	2.2	379	355	
OT-001191: hPDE5 R732F AcGFP construct	Modest ligand dependent stabilization of GFP levels	2188	8468	14705	17021	20693	20693	688	916	3555	4427	5449	4.99	1.51	351	943	0.24	1.17	233	189	MFI (hPDE5 mutants [2]; [15]): 5449; MFI (hPDE5 mutants [2]; [16]): 631; MFI (hPDE5 mutants [3]; Tadalafil 11.11 μM): 4734; MFI (hPDE5 mutants [3]; Tadalafil 33.33 μM): 5293; MFI (hPDE5 mutants [3]; Tadalafil 100 μM): 5867; MFI (hPDE5 mutants [3]; Tadalafil 1000 μM): 5867
OT-001192: hPDE5 R732W AcGFP construct	strong stabilization of GFP levels												0.59	0.64	158	179	0.25	1.87	248	301	
OT-001193: hPDE5 R732Y AcGFP construct	strong stabilization of GFP levels												1.14	1.63	648	345	0.4	1.88	397	302	
OT-001195: hPDE5 R732H AcGFP construct	strong stabilization of GFP levels												1.06	2.02	710	328	0.36	1.91	352	308	
OT-001196: hPDE5 R732S AcGFP construct	strong stabilization of GFP levels												0.7	0.98	746	399	0.77	3.52	760	566	
